The text below walks through data of patent US20220213196A1 (published 2022).

This test has as its target T1, MAGEA3 peptide on HLA-A*01:01 (human).
T1 peptide: EVDPIGHLY
Briefly: multimer staining.

B1:  (TCR, V domains shown)
Valpha: KQEVTQIPAALSVPEGENLVLNCSFTDSAIYNLQWFRQDPGKGLTSLLLIQSSQREQTSGRLNASLDKSSGRSTLYIAASQPGDSATYLCAVDNYGQNFVFGPGTRLSVLP
Vbeta: RPQVTQNPRYLITVTGKKLTVTCSQNMNHEYMSWYRQDPGLGLRQIYYSMNVEVTDKGDVPEGYKVSRKEKRNFPLILESPSPNQTSLYFCASSTTGSSPLHFGNGTRLTVT
Take B1: the binding result is “recognises”.
